Test results from the supplement of paper PMC9170038.

Tested on: K4 kissing-loop RNA reporter
Experiment: apparent KD of K4 kissing-loop reporter; higher = weaker reporter binding
Conditions: Eterna round: R107
Method: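 RNA-MaP round R107: designed RNA switches with theophylline, tryptophan, arginine or FMN aptamers are transcribed on-chip within common flanks. They are titrated with a labelled K4 kissing-loop RNA reporter in RNA-MaP buffer (100 mM Tris pH 7.5, 80 mM KCl, 4 mM MgCl2), without ligand or with the indicated ligand. Median apparent KD per design.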

[1] = input ligand: theophylline 20 uM
[2] = input ligand: tryptophan 2.4 mM
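Note: bound reporter read as fluorescence of individual clusters on recovered sequencing chips by microscopy, with normalized cluster intensities fitted with a binding model.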

Sequence	apparent KD of K4 kissing-loop reporter (input ligand: FMN 200 uM) [nM]	apparent KD of K4 kissing-loop reporter (input ligand: arginine 13.2 mM) [nM]	apparent KD of K4 kissing-loop reporter (input ligand: none) [nM]	apparent KD of K4 kissing-loop reporter [1] [nM]	apparent KD of K4 kissing-loop reporter [2] [nM]
UUAAUAUUGUCGGCCGCCACUGUUUAGUAUUUUGUAUAAUCUAUUUCAAAGUGAUGUUUUGAUUCCAGGACCGGGACAUUUGAUA [JR_Nu_ExcTryptoB_Sub031]	597	414	536	486	298
GUUACGCAUGGAAGGAGCGCGAUAAUAUUAAGUGAGUGAUGUUCACAAAGAAAAUAAAUAACGCAGGUAGGUCGCCAUGUGUAAC [Ex Arginine B K4 4]	79.3	93.1	80.8	97.8	81.8
GGUGAUGAGCACGAUACCAGCCUCGGAGCCAGUGAUGUUGGCCCAAUUUAAAAUAAGAUAGGCCCUUGGCAGCGUGACGAUGGCU [Rainle]	727	727	711	466	643
GCCGUACGCAUGGAUACCAGUCAAGAUCAGUGAUGUUGAUCUUUUAUAGAGCCUUCAUUAGACCCUUGGCAGCCAUGCGUACGGC	429	237	391	373	250
AAAAUAAGCCAGUGAUGUUGGUAUACAGAUACCAGCGACGAAAGUCGCCCUUGGCAGCUGUGGACGUACAAAAUAAGUACGUCCU	364	278	417	780	364
AUGGUGGAUCAGUGAUGUUGGUGGAGUAGGUAGGAUAUGAGUGAUGUUAGAAGGAUCGGAGUGAUGUUCCAGGUGGUUGUGUUGU [KL-SSFMN-A3]	540	302	548	516	389
UGACUGGACUGAAGGAGCGCUGAACUCCUAGUGAUGUUAGGACAACGAGACAAAGUCUCGCGGCAGGUAGGUCGCAGUCUAGUCU	159	119	121	145	131
CCGGGCGGCUGAAGGAGCGGGCGGGCCCGAGUGAUGUUCGGGUGGACCGUGAGGUCCGGUGCCCAGGUAGGUCGCGGUUCCGCCC [#2 Same State - Arginine B Attempt #8 (HarryS)]	247	183	162	296	238
UGUAUGUGAUUUGAUACCAGACCAGUUGGUGGUAUAUGAGUGAUGUUUAUGUUGGUUUGGGUCCCUUGGCAGCAAAUCGCAUACU [KL-SSTheoB11]	591	307	491	356	386
GGUAGCAUGGCGGCCGCCACUCGCUAGUGAUGUUAGCGGGAUGAGACAAAGGACAUAACUUUAUCGAGGACCGGGCCAUGCUACC	88.2	66.5	75.8	62.2	92.9
UUUUAUUAAUUCUUCUAGUGAUGUUAGAUACGAGGACCGGUACGGCCGCCACUCGCUUAUUGGUUUAUAUAUUUUAUAUUCUUUA [JR_SSTryptoA_Sub015]	293	319	330	400	264
GGAUAGGAUAGAGGAUAUGGUUUAUGCAGGAAUAACUUAUUGUGUAAAUCCAUAGGGAGUGAUGUUCCAGAAGGCUGUCCUAUCG [MatMod 14 - Jieux - Exclusion - FMN B]	379	218	230	249	183
GCGCGCGUUUUAGAUACCAGCCAGUGAUGUUGGCGAGGAUUCUGGAGCGUAGUGUCAAAUGGCCCUUGGCAGCUAACACGCGGCU [Zabea]	117	108	119	134	123
GCCGUAGAUUGAAGGAGCGCCUUCUUACCAAGAGUGAUGUUCUUAGGUACCAUGUUCAGUAGGCAGGUAGGUCGCAAUCUACGGC	499	441	484	647	489
CGAGUGAUGUUCGAAGAGUUGUUAAGCGAUACCAGCUAGGAGACUGGCCCUUGGCAGCGUAAUAAGUUAAUAAAUAAAUGAUCAC [whbob_Ex_Theo_A_th65]	293	384	360	506	285
UUGUGCAGCAAACGAGUGAUGUUCGACGAUACCAGCCUCGAUAGAGGCCCUUGGCAGCGUAAUAAUCACAGCCAAGGGCUGCACU [#SwitchBubble 4]	651	535	749	774	560
GUGCGCGCGGCGGCCGCCACUCGCAUGAGAGUGAUGUUCUCGGGACUGACGCAAGUCAGUCAUGUGAGGACCGGGCCGGGCUGCG [#2 Same State - Tryptophan B Attempt #12 (HarryS)]	1060	1640	447	769	423
CCAACAACGAGUGAUGUUCGUUGAUCAGAAGGAGCGUCAAUAAUGACAGGUAGGUCGCUGAUAAUUGGAAAUAGGGCAAUAGCUU [Same State Arginine A GF12]	110	113	115	120	105
AGACUACCACACUGUCAAUAGACAGUGAGCUAGGAUAUGCUGAUAAGCAGAAGGAGUGAUGUUCCUUGGUAGUCAAUAAAAUAAU [FmnAX 13 G29+U67]	366	271	285	319	280
ACGGAUUCGAAUACCGAAUGAAAUAGGGAUACCAGCACGUGAACGUGCCCUUGGCAGCCCAGCCCAGUGAUGUUGGGCCCAUGGC [Biso]	173	185	179	212	204
GCCGUACGCAUGGAUACCAGCUUGUCCGAGUGAUGUUCGGGUCUGAAUGCCGGUAAUAAGAGCCCUUGGCAGCCAUGCGUACGGC	137	104	124	117	123
GUACGCUUCCGAGUGAUGUUCGGAAAUCGCUAGGAUAUCGCUUUUGCGAGAAGGAGCGCAAUGAGGAAACUCGUUGUUAGUGUAC [FMN A 27]	164	146	177	171	163

Sequence	apparent KD of K4 kissing-loop reporter (input ligand: FMN 200 uM) [nM]	apparent KD of K4 kissing-loop reporter (input ligand: arginine 13.2 mM) [nM]	apparent KD of K4 kissing-loop reporter (input ligand: none) [nM]	apparent KD of K4 kissing-loop reporter [1] [nM]	apparent KD of K4 kissing-loop reporter [2] [nM]
AUGCGCGCGGCGGCCGCCACUCGCAUGAGAGUGAUGUUCUCGCCGGGCCCGAAAGGGCCCGGUGUGAGGACCGGGCCGGGCUGCG [#2 Same State - Tryptophan B Attempt #15 (HarryS)]	176	64.9	145	91.8	237
GCCUACGAUGCAGGAUAUAGCUCGCGAGUGAUGUUCGCAGCUGUAUGGUAGUAAACUUCCACGUGUCUAGAAGGGCAUCGUAGGC	111	79.7	91.6	80	90.7
CCUUCCUAAAACGAUACCAGUUUCUAUCCUCAAUCCAGUGAUGUUGAAUUGAGCUCACAGAACCCUUGGCAGCGUCGCUAUACGG [theeternabot_sameState_KL_Theo_B_39]	214	202	195	180	190
UGACUGGACUGAAGGAGCGUUGAAGGAGCGUAAGGAGUGAUGUUCCAUACAGGUAGGUCGCAGCAGGUAGGUCGCAGUCUAGUCU [ArgBS 26 #DoubleAptamer #SwitchBubble]	204	245	229	171	281
UGAUACCAGACGGCCGCCACUCCUGCAGUCAAAGACUGCAAGGAAAUAUUCGUCCAGUGAUGUUGGAGGACCGGGUCUGGUAUCU [TrypBX 9 #SwitchBubble #Palindromic #StaticStem]	921	687	820	670	1060
UGAUAGGACAGAAGGAGCGGUAGUGAUGUUGCCAAAAGGGUAAGGUGUCAAAAGACACCCUACCAGGUAGGUCGCUGUCCUAUCU	83.9	93.2	84.6	87	83.4
CGCAAAUCGUCGGCCGCCACUGCAUUUGAACGCUAAUUGUCUCUGCGCGGAGUGAUGUUCUGUGCCAGGACCGGGACGGAUUUCG [theeternabot_exclusion_KL_Trp_B_21]	446	381	517	499	146
CUUGAUGGAAACAUCGAGUAUUUCACUGAUACCAGUAUCGAUAGAUACCCUUGGCAGCAGGAUCAGUGUUUACGAGUGAUGUUCG [Ex Theophylline A K4 9]	444	408	451	380	376
AGCUAGUACGCAGGAUAUCGAACAUCAUUUAGUGAGAUCGAGUGAUGUUCGAUCACGUCUUCAGUUCGAGAAGGGCGUACUAGCA [#01 K4 FMN B Same State]	349	423	1090	1220	777
CGUUUAUAGCAGGAUACCAGUACCCAUUAUGUACGUUUAUAGUAGAGUGAUGUUCUAAAGUACCCUUGGCAGCUUCCUGUGACCC [ExTheophylB.Aa]	166	168	181	194	145
CGGCGCGGCGCGGCCGCCACUGCGCCUGGGCGCUCGCCGAGUGAUGUUCGUCGGCGGUCGGGUGGCAGGACCGGGUGCCGGCCCG [BDazzled - #20 SS Tryptophan B]	295	227	217	169	141
AGACUACCACACUGUCAAUAGACAGUGUACUAGGAUAUGCUGAUAAGCAGAAGGAGUGAUGUUCCGAGGUAGUCAAUAAAAUAAU [FmnAX 13 U28+G66]	326	258	253	330	242
UGAUACCAGACGGCCGCCACUAGGACCGGGAGUGAUGUUCCCAAUUUAAAAUGCUCGGCCGCCACUAGGACCGGGUCUGGUAUCU [TrypBX 27 #DoubleAptamer #SwitchBubble]	173	207	198	305	109
UGACUGGACUGAAGGAGCGAGCGAGACAAAGUCUCGAAAAUUCAGUGAUGUUGAAAUAUAACUCAGGUAGGUCGCAGUCUAGUCU [ArgBS 4 #SwitchBubble #StaticStem]	328	303	377	313	304
UAUAUAUGAUGUGAUACCAGUGAAAAGCCAGUGAUGUUGGUAGAACUGGUAUAUAAAUGGCACCCUUGGCAGCACAAUCACGUAU [#28 K4 Theophylline B Exclusion]	119	108	114	120	117
GGUCGCCUGAGCAGUGAUGUUGCAAGGGAAGGAGCGCGUUUUUUCGCAGGUAGGUCGCCCAAAUAAUAAGUUAAACUAGGCGACC [4.)]	221	144	149	316	205
AUAGAAAAGUGGCACCCUCACUAAAACAGUCGAGGACCGGUACGGCCGCCACUCGCGCGCUUUAGUGAUGUUAAAGCUAUGCAAA	407	358	380	407	105
GCCGUACGCACGGAUACCAGCACUCGUUGAGUGAUGUUCACGGUGUGGUAUUCAACGGGCUGCCCUUGGCAGCCGUGCGUACGGC	135	91.2	134	139	144
AAACGUCGGAAGUGAUGUUGAUGACGUAGUAAGGAUAUUGGACGCGCAAGAAGGUACUGGCAAACUAAGGACAUCCUGGAUAUUC [theeternabot_exclusion_KL_FMN_A_47]	330	251	232	243	254
GAGCGGUGGAGGUUACCGCUAUUCUGAGAAGGAGCGCAGAAGACUGCAGGUAGGUCGCUUAGAGCUUGCAGUGAUGUUGCAAGUU [KL-SSArg-A13]	173	122	141	160	127
AGCUCACACGGAAGGAGCGGAUAGAACUGACAGUUGGGCUCAAGUGAUGUUUGGGCUUGAAUCCAGGUAGGUCGCCGUGUGAGCU [Arg B SS t12]	136	96.3	109	123	123
GCCCGAAAGGGCCGAUGUGUUUGCGGCGAUCGAGGACCGGUACGGCCGCCACUCGUCGAGGCGUUCAGUGAUGUUGAAAGCAUUA	334	279	352	354	626
